In assay [1] the target is T1, human gastric inhibitory peptide receptor (GIPR) (human, UniProt P48546 22-466).
T1 sequence (looked up): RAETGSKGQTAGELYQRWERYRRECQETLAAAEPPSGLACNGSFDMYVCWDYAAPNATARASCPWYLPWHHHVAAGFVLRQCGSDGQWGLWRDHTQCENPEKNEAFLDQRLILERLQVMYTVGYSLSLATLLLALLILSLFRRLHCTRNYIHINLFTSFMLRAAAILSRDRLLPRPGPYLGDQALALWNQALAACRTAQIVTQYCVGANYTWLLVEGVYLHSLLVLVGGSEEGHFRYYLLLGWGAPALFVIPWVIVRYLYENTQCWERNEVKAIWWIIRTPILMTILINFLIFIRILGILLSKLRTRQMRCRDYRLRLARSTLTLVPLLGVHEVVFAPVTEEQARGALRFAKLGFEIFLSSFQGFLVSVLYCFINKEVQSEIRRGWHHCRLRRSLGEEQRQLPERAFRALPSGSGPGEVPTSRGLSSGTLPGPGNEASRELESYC
In words: cell-based or functional assay.

Assay [2] concerns the target human GLP-1 receptor (GLP-1R) (human, UniProt P43220 24-463). The experiment in a line: cell-based or functional assay.

Numbered stars: 1 amine (or outer) side, 2 acyl side, 3 side chain; on linkers, the order of the positions; unused ones are H or OH. Square brackets hold non-standard residues; d marks the D form. Side chains are listed from the residue outwards. Ends that are not written are not given here. * marks the point of attachment. C20 diacid = O=C(O)CCCCCCCCCCCCCCCCCCC(=O)*; C18 diacid = O=C(O)CCCCCCCCCCCCCCCCC(=O)*; γGlu = O=C(O)[C@H](CCC(=O)[*:2])N[*:1]; AEEA = NCCOCCOCC(=O)O; Aib = CC(C)(N)C(=O)O

B1: Example 319 (peptide)
peptide: Y[Aib]EGTFTSDYSILLDKK([AEEA-AEEA-γGlu-C20 diacid])AQ[Aib]EFIEYLIAGGPSSGAPPPS-NH2
modifications: N-terminus assumed
SMILES: CC[C@H](C)[C@H](NC(=O)[C@H](CC(C)C)NC(=O)[C@H](Cc1ccc(O)cc1)NC(=O)[C@H](CCC(=O)O)NC(=O)[C@@H](NC(=O)[C@H](Cc1ccccc1)NC(=O)[C@H](CCC(=O)O)NC(=O)C(C)(C)NC(=O)[C@H](CCC(N)=O)NC(=O)[C@H](C)NC(=O)[C@H](CCCCNC(=O)COCCOCCNC(=O)COCCOCCNC(=O)CC[C@H](NC(=O)CCCCCCCCCCCCCCCCCCC(=O)O)C(=O)O)NC(=O)[C@H](CCCCN)NC(=O)[C@H](CC(=O)O)NC(=O)[C@H](CC(C)C)NC(=O)[C@H](CC(C)C)NC(=O)[C@@H](NC(=O)[C@H](CO)NC(=O)[C@H](Cc1ccc(O)cc1)NC(=O)[C@H](CC(=O)O)NC(=O)[C@H](CO)NC(=O)[C@@H](NC(=O)[C@H](Cc1ccccc1)NC(=O)[C@@H](NC(=O)CNC(=O)[C@H](CCC(=O)O)NC(=O)C(C)(C)NC(=O)[C@@H](N)Cc1ccc(O)cc1)[C@@H](C)O)[C@@H](C)O)[C@@H](C)CC)[C@@H](C)CC)C(=O)N[C@@H](C)C(=O)NCC(=O)NCC(=O)N1CCC[C@H]1C(=O)N[C@@H](CO)C(=O)N[C@@H](CO)C(=O)NCC(=O)N[C@@H](C)C(=O)N1CCC[C@H]1C(=O)N1CCC[C@H]1C(=O)N1CCC[C@H]1C(=O)N[C@@H](CO)C(N)=O
B1: in assay [1], the “hGIPR cAMP EC50 ratio” value was 2.77 and the “hGIPR cAMP Rel EC50” value amounted to 0.054 nM. Further, in assay [2], the “hGLP1R cAMP EC50 ratio” value was 0.522 and the “hGLP1R cAMP Rel EC50” value was 0.113 nM.

B2: Example 321 (peptide)
peptide: Y[Aib]EGTFTSDYSILLDKK([AEEA-AEEA-γGlu-C18 diacid])AQ[Aib]TFIEYLIEGGPSSG-NH2
modifications: N-terminus assumed
SMILES: CC[C@H](C)[C@H](NC(=O)[C@H](CC(C)C)NC(=O)[C@H](Cc1ccc(O)cc1)NC(=O)[C@H](CCC(=O)O)NC(=O)[C@@H](NC(=O)[C@H](Cc1ccccc1)NC(=O)[C@@H](NC(=O)C(C)(C)NC(=O)[C@H](CCC(N)=O)NC(=O)[C@H](C)NC(=O)[C@H](CCCCNC(=O)COCCOCCNC(=O)COCCOCCNC(=O)CC[C@H](NC(=O)CCCCCCCCCCCCCCCCC(=O)O)C(=O)O)NC(=O)[C@H](CCCCN)NC(=O)[C@H](CC(=O)O)NC(=O)[C@H](CC(C)C)NC(=O)[C@H](CC(C)C)NC(=O)[C@@H](NC(=O)[C@H](CO)NC(=O)[C@H](Cc1ccc(O)cc1)NC(=O)[C@H](CC(=O)O)NC(=O)[C@H](CO)NC(=O)[C@@H](NC(=O)[C@H](Cc1ccccc1)NC(=O)[C@@H](NC(=O)CNC(=O)[C@H](CCC(=O)O)NC(=O)C(C)(C)NC(=O)[C@@H](N)Cc1ccc(O)cc1)[C@@H](C)O)[C@@H](C)O)[C@@H](C)CC)[C@@H](C)O)[C@@H](C)CC)C(=O)N[C@@H](CCC(=O)O)C(=O)NCC(=O)NCC(=O)N1CCC[C@H]1C(=O)N[C@@H](CO)C(=O)N[C@@H](CO)C(=O)NCC(N)=O
Consider B2, for which, in assay [1], the “hGIPR cAMP EC50 ratio” value was 0.517 and the “hGIPR cAMP Rel EC50” value turned out to be 0.0752 nM. Moreover, in assay [2], the “hGLP1R cAMP EC50 ratio” value worked out at 0.437 and the “hGLP1R cAMP Rel EC50” value was 0.204 nM.

B3: Example 323 (peptide)
peptide: YXEGTFTSDYSIXLDEKAQXAFIEYLIEGGPSSGAPPPS
modifications: Aib2, αMeL13, (2-[2-(2-Amino-ethoxy)-ethoxy]-acetyl)2-(γ-Glu)-CO-(CH2)16-CO2H on K17, Aib20, C-terminal NH2
B3: in assay [1], the “hGIPR cAMP EC50 ratio” value was 3.24 and the “hGIPR cAMP Rel EC50” value was found to be 0.0251 nM. In addition, in assay [2], the “hGLP1R cAMP EC50 ratio” value was 1.32 and the “hGLP1R cAMP Rel EC50” value worked out at 0.0597 nM.

B4: Example 324 (peptide)
peptide: YXEGTFTSDYSIXLDKKAQXAFIEYLIAGGPSSGAPPPS
modifications: Aib2, αMeL13, (2-[2-(2-Amino-ethoxy)-ethoxy]-acetyl)2-(γ-Glu)-CO-(CH2)1s-CO2H (so in the source); probably (CH2)18) on K17, Aib20, C-terminal NH2
Turning to B4, in assay [1], the “hGIPR cAMP EC50 ratio” value was found to be 2.13 and the “hGIPR cAMP Rel EC50” value amounted to 0.0374 nM. Moreover, in assay [2], the “hGLP1R cAMP EC50 ratio” value came to 0.798 and the “hGLP1R cAMP Rel EC50” value is 0.0926 nM.

B5: Example 325 (peptide)
peptide: YXEGTXTSDYSILLDKKAQXAFIEYLIEGGPSSGAPPPS
modifications: Aib2, αMeF(2F)6, (2-[2-(2-Amino-ethoxy)-ethoxy]-acetyl)2-(γ-Glu)-CO-(CH2)18-CO2H on K17, Aib20, C-terminal NH2
For the molecule B5, in assay [1], the “hGIPR cAMP EC50 ratio” value came to 2.65 and the “hGIPR cAMP Rel EC50” value amounted to 0.0301 nM. Also, in assay [2], the “hGLP1R cAMP EC50 ratio” value is 1.16 and the “hGLP1R cAMP Rel EC50” value was found to be 0.0586 nM.

B6: Example 320 (peptide)
peptide: Y[Aib]EGTFTSDYSILLDKK([AEEA-AEEA-γGlu-C18 diacid])AQ[Aib]DFIEYLIEGGPSSG-NH2
modifications: N-terminus assumed
SMILES: CC[C@H](C)[C@H](NC(=O)[C@H](CC(C)C)NC(=O)[C@H](Cc1ccc(O)cc1)NC(=O)[C@H](CCC(=O)O)NC(=O)[C@@H](NC(=O)[C@H](Cc1ccccc1)NC(=O)[C@H](CC(=O)O)NC(=O)C(C)(C)NC(=O)[C@H](CCC(N)=O)NC(=O)[C@H](C)NC(=O)[C@H](CCCCNC(=O)COCCOCCNC(=O)COCCOCCNC(=O)CC[C@H](NC(=O)CCCCCCCCCCCCCCCCC(=O)O)C(=O)O)NC(=O)[C@H](CCCCN)NC(=O)[C@H](CC(=O)O)NC(=O)[C@H](CC(C)C)NC(=O)[C@H](CC(C)C)NC(=O)[C@@H](NC(=O)[C@H](CO)NC(=O)[C@H](Cc1ccc(O)cc1)NC(=O)[C@H](CC(=O)O)NC(=O)[C@H](CO)NC(=O)[C@@H](NC(=O)[C@H](Cc1ccccc1)NC(=O)[C@@H](NC(=O)CNC(=O)[C@H](CCC(=O)O)NC(=O)C(C)(C)NC(=O)[C@@H](N)Cc1ccc(O)cc1)[C@@H](C)O)[C@@H](C)O)[C@@H](C)CC)[C@@H](C)CC)C(=O)N[C@@H](CCC(=O)O)C(=O)NCC(=O)NCC(=O)N1CCC[C@H]1C(=O)N[C@@H](CO)C(=O)N[C@@H](CO)C(=O)NCC(N)=O
Turning to B6, in assay [1], the “hGIPR cAMP EC50 ratio” value is 0.241 and the “hGIPR cAMP Rel EC50” value came to 0.161 nM. Further, in assay [2], the “hGLP1R cAMP EC50 ratio” value came out at 0.224 and the “hGLP1R cAMP Rel EC50” value was 0.397 nM.

B7: Example 322 (peptide)
peptide: Y[Aib]EGTFTSDYSILLDKK([AEEA-AEEA-γGlu-C18 diacid])AQ[Aib]HFIEYLIEGGPSSG-NH2
modifications: N-terminus assumed
SMILES: CC[C@H](C)[C@H](NC(=O)[C@H](CC(C)C)NC(=O)[C@H](Cc1ccc(O)cc1)NC(=O)[C@H](CCC(=O)O)NC(=O)[C@@H](NC(=O)[C@H](Cc1ccccc1)NC(=O)[C@H](Cc1c[nH]cn1)NC(=O)C(C)(C)NC(=O)[C@H](CCC(N)=O)NC(=O)[C@H](C)NC(=O)[C@H](CCCCNC(=O)COCCOCCNC(=O)COCCOCCNC(=O)CC[C@H](NC(=O)CCCCCCCCCCCCCCCCC(=O)O)C(=O)O)NC(=O)[C@H](CCCCN)NC(=O)[C@H](CC(=O)O)NC(=O)[C@H](CC(C)C)NC(=O)[C@H](CC(C)C)NC(=O)[C@@H](NC(=O)[C@H](CO)NC(=O)[C@H](Cc1ccc(O)cc1)NC(=O)[C@H](CC(=O)O)NC(=O)[C@H](CO)NC(=O)[C@@H](NC(=O)[C@H](Cc1ccccc1)NC(=O)[C@@H](NC(=O)CNC(=O)[C@H](CCC(=O)O)NC(=O)C(C)(C)NC(=O)[C@@H](N)Cc1ccc(O)cc1)[C@@H](C)O)[C@@H](C)O)[C@@H](C)CC)[C@@H](C)CC)C(=O)N[C@@H](CCC(=O)O)C(=O)NCC(=O)NCC(=O)N1CCC[C@H]1C(=O)N[C@@H](CO)C(=O)N[C@@H](CO)C(=O)NCC(N)=O
For the molecule B7, in assay [1], the “hGIPR cAMP EC50 ratio” value is 0.266 and the “hGIPR cAMP Rel EC50” value stood at 0.146 nM. For the same molecule, in assay [2], the “hGLP1R cAMP EC50 ratio” value amounted to 0.125 and the “hGLP1R cAMP Rel EC50” value was 0.711 nM.

B8: Example 326 (peptide)
peptide: F[Aib]EGTFTSDYSILLDKK([AEEA-AEEA-γGlu-C20 diacid])AQ[Aib]AFIEYLIEGGPSSGAPPPS-NH2
As for B8, in assay [1], the “hGIPR cAMP EC50 ratio” value worked out at 1.5 and the “hGIPR cAMP Rel EC50” value was determined as 0.0754 nM. For the same molecule, in assay [2], the “hGLP1R cAMP EC50 ratio” value is 1.4 and the “hGLP1R cAMP Rel EC50” value was 0.0369 nM.

(Values after patent US20220048967A1 (published 2022).)
